Data taken from patent US20130273029A1 (Novartis, published 2013).
Changes are numbered by the printed parent chain.

B1: MOR13868 (antibody, human IgG1, kappa, V domains shown)
VH: QVQLVQSGAEVKKPGESLKISCKGSGYSFSNYWIAWVRQMPGKGLEWMGIIYPGLSDTIYSPSFQGQVTISADKSISTAYLQWSSLKASDTAMYYCARVHIIQPPSAWSYNAMDVWGQGTLVTVSS
VL: DIQMTQSPSSLSASVGDRVTITCRASQSISTYLNWYQQKPGKAPKLLIFGASNLQSGVPSRFSGSGSGTDFTLTISSLQPEDFATYYCQQSITELFTFGQGTKVEIKR
notes: tested as IgG
B2: MOR13767 (antibody, human IgG1, kappa, V domains shown)
VH: B1 VH with S30T, N31T, Y32S, I34V, L55Q
VL: B1 VL
notes: tested as IgG
B3: MOR13869 (antibody, human IgG1, kappa, V domains shown)
VH: B1 VH with L55G
VL: B1 VL
notes: tested as IgG
B4: MOR13871 (antibody, human IgG1, kappa, V domains shown)
VH: B1 VH with L55S
VL: B1 VL
notes: tested as IgG
B5: MOR13867 (antibody, human IgG1, kappa, V domains shown)
VH: B1 VH with L55Q
VL: B1 VL
notes: tested as IgG
B6: MOR13870 (antibody, human IgG1, kappa, V domains shown)
VH: B1 VH with L55T
VL: B1 VL
notes: tested as IgG
B7: MOR12509 (antibody, human IgG1, kappa, V domains shown)
VH: B1 VH with S30T, Y32S, I34V, L55N
VL: DIQMTQSPSSLSASVGDRVTITCRASQSITHYLNWYQQKPGKAPKLLIFGASNLQSGVPSRFSGSGSGTDFTLTISSLQPEDFATYYCQQAFVDPSTTFGQGTKVEIKR
notes: tested as IgG
B8: MOR12510 (antibody, human IgG1, kappa, V domains shown)
VH: B1 VH with S30T, Y32S, I34V, L55N
VL: B1 VL with S91D, T93D, L95P, F96W
notes: tested as IgG

molecular target: T1, Human HER3, endogenous, on human cancer cell lines (SK-Br-3, MCF7, BT-474) (human, UniProt P21860 20-1342); test: cell-based or functional assay
T1 sequence (P21860 20-1342): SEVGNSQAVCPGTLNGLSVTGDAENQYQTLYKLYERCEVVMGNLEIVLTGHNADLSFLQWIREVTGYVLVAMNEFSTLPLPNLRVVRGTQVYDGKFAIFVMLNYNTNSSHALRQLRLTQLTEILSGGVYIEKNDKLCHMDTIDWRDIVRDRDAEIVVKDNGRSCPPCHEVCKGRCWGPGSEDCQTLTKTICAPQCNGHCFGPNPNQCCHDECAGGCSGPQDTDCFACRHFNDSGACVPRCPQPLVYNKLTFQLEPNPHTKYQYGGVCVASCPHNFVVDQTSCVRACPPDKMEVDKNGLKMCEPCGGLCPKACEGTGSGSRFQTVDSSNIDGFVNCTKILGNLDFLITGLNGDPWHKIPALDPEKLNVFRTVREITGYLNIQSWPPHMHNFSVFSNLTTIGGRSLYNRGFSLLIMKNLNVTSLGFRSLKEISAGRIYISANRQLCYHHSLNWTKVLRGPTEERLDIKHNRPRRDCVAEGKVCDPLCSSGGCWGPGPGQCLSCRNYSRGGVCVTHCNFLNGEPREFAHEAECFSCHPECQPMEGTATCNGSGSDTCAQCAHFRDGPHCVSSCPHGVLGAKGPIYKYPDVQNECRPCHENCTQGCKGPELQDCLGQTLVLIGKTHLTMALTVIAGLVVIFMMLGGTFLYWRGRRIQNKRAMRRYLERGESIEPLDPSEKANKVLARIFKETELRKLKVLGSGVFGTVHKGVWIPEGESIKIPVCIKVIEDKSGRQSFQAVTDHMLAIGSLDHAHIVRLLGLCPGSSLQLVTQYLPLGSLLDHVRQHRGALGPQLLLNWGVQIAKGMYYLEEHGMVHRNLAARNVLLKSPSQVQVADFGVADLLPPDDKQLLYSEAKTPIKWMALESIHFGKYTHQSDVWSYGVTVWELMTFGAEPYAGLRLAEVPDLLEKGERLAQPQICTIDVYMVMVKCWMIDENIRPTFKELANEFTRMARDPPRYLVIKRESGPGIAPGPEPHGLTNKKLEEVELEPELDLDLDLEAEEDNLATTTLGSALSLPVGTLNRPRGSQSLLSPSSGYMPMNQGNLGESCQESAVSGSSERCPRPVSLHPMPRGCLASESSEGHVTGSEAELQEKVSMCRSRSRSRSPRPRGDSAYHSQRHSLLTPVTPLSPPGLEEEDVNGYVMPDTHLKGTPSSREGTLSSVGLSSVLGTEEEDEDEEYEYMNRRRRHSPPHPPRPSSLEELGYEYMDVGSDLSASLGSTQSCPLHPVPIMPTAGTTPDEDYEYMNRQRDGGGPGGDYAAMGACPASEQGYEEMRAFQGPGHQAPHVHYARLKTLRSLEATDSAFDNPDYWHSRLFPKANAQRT

| BT-474 pAkt (S473) % inhibition | BT-474 pAkt (S473) IC50 | SK-Br-3 pAkt (S473) % inhibition | SK-Br-3 pAkt (S473) IC50 | Binder |
| --- | --- | --- | --- | --- |
| 81% | 537 pM | 92% | 78 pM | B1 |
| 82% | 167 pM | 89% | 92 pM | B2 |
| 79% | 3040 pM | 91% | 212 pM | B3 |
| 83% | 1630 pM | 93% | 97 pM | B4 |
| 84% | 472 pM | 95% | 120 pM | B5 |
| 77% | 424 pM | 91% | 76 pM | B6 |

molecular target: T2, Cyno HER3: CD33-[Cyno HER3, residues 20-643]-TAG (cynomolgus, UniProt G7PIG5 20-643); test: SET, IgG vs soluble HER3-Tag
T2 construct: also called cy HER3-Tag; not shown: C-terminal TAG (e.g., FLAG TAG)
T2 sequence (G7PIG5 entry or part of it): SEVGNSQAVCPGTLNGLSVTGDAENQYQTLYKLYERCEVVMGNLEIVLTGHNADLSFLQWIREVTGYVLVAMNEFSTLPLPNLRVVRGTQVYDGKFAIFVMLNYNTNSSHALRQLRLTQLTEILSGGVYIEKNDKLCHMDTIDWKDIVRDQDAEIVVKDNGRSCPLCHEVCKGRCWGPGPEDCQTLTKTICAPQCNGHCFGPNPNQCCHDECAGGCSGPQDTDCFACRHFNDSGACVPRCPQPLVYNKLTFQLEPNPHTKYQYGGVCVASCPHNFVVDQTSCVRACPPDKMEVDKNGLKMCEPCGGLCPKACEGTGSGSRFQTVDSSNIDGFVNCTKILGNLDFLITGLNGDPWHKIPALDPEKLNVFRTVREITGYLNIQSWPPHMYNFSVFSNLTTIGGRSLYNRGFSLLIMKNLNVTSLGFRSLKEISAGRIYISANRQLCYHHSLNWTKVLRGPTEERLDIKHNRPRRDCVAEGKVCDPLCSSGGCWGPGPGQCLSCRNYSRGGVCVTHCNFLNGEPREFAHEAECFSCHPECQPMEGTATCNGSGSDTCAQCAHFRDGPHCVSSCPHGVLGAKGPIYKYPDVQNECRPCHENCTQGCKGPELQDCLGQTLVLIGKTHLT
Protocol: (§1) Affinity determination in solution was essentially performed as previously described (Friguet et al., (1985) J Immunol Methods 77:305-19). In order to improve the sensitivity and accuracy of the SET method, it was transferred from classical ELISA to ECL based technology (Haenel et al., (2005) Anal Biochem 339:182-84).
(§2) The data was evaluated with XLfit software (ID Business Solutions) applying customized fitting models.
(§3) Antibody affinity was determined by solution equilibrium titration (SET) as described above. The results are summarized in Table 3 and example titration curves for MOR12616 and MOR12925 are contained in FIG. 1.

| Kd | Binder |
| --- | --- |
| 0.32 nM | B7 |
| 0.4 nM | B8 |

molecular target: T3, Mu HER3: CD33-[Murine HER3, residues 20-643]-TAG (murine, UniProt Q61526 20-643); test: SET, IgG vs soluble HER3-Tag
T3 construct: also called mu HER3-Tag; not shown: C-terminal TAG (e.g., FLAG TAG)
T3 sequence (Q61526 20-643): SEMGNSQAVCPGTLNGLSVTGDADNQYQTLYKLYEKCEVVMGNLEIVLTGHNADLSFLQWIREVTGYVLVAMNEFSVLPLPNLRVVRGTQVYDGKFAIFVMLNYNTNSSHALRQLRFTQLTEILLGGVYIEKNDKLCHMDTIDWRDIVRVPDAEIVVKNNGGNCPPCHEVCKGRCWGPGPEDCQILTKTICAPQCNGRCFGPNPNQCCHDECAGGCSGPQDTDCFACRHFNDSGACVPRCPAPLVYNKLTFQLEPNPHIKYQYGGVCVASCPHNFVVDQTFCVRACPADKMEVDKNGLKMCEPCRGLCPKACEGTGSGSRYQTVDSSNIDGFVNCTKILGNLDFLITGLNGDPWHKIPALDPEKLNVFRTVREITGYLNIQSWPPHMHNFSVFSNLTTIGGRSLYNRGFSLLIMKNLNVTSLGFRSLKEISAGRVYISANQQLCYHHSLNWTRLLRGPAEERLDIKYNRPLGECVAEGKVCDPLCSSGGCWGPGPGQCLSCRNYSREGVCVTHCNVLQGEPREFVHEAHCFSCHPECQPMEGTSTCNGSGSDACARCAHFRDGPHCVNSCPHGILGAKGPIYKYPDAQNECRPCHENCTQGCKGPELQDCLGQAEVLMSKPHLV
Protocol: as §1, §2, §3

| Kd | Binder |
| --- | --- |
| 0.25 nM | B7 |
| 0.2 nM | B8 |

molecular target: T4, Hu HER3: CD33-[Human HER3, residues 20-640]-TAG (human, UniProt P21860 20-640); test: SET, IgG vs soluble HER3-Tag
T4 construct: also called hu HER3-Tag; HER3-Tag; not shown: C-terminal TAG (e.g., FLAG TAG)
T4 sequence (P21860 20-640): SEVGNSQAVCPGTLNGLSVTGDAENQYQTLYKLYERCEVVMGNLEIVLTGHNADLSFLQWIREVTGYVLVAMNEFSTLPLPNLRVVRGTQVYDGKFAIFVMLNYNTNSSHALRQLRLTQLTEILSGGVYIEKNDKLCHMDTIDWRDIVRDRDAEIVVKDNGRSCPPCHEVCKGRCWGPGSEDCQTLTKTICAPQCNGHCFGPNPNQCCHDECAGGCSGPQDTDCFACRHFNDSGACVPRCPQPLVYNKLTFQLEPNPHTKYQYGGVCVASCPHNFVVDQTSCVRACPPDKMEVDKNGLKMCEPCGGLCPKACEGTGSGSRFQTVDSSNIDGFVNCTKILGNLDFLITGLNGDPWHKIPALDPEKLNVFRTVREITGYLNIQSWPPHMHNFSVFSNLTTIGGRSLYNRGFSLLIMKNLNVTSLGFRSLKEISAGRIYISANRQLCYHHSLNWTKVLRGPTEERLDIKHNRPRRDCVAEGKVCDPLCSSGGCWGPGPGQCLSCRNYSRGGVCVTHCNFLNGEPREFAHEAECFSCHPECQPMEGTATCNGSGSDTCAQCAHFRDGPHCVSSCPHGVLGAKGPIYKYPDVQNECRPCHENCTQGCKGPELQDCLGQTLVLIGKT
Protocol: as §1, §2, §3

| Kd | Binder |
| --- | --- |
| 0.078 nM | B7 |
| 0.055 nM | B8 |
| 0.133 nM | B1 |
| 0.024 nM | B2 |
| 0.23 nM | B3 |
| 0.193 nM | B4 |
| 0.03 nM | B5 |
| 0.173 nM | B6 |

molecular target: T5, Rat HER3: CD33-[Rat HER3, residues 20-643]-TAG (rat, UniProt Q62799 20-643); test: SET, IgG vs soluble HER3-Tag
T5 construct: also called ra HER3-Tag; not shown: C-terminal TAG (e.g., FLAG TAG)
T5 sequence (Q62799 20-643): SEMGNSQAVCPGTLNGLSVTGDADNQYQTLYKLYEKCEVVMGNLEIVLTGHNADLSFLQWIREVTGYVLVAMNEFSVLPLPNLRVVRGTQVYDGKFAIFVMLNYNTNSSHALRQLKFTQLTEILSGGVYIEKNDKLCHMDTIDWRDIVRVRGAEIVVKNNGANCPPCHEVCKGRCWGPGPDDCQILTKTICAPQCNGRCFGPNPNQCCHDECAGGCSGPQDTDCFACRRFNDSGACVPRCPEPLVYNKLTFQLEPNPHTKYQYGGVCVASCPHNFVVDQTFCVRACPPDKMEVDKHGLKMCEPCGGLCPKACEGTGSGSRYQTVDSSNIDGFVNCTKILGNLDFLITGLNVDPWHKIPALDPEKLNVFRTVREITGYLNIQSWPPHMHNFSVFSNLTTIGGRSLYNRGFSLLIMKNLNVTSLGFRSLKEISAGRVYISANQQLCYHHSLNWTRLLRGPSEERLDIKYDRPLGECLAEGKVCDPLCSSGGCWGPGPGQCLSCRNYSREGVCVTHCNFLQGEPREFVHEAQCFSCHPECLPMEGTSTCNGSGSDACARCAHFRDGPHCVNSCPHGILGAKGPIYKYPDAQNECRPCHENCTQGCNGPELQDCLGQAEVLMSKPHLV
Protocol: as §1, §2, §3

| Kd | Binder |
| --- | --- |
| 0.48 nM | B7 |
| 0.75 nM | B8 |

molecular target: T1, Human HER3, endogenous, on human cancer …; test: cell-based or functional assay; remark: another data set of the same source

| BT474 pHER3 % inhibition | MCF7 pHER3 % inhibition | MCF7 pHER3 IC50 | SK-Br-3 pHER3 % inhibition | SK-Br-3 pHER3 IC50 | BT474 pHER3 IC50 | Binder |
| --- | --- | --- | --- | --- | --- | --- |
| 84% | 70% | 712 pM | 76% | 483 pM | – | B7 |
| 85% | 73% | 450 pM | 78% | 157 pM | 34 pM | B8 |
| 68% | 75% | 189 pM | 83% | 205 pM | 894 pM | B1 |
| 61% | – | – | 78% | 130 pM | 496 pM | B2 |
| 55% | 64% | 427 pM | 77% | 263 pM | 1330 pM | B3 |
| 68% | 74% | 43 pM | 83% | 105 pM | 608 pM | B4 |
| 71% | 78% | 267 pM | 83% | 107 pM | 643 pM | B5 |
| 66% | 71% | 84 pM | 81% | 110 pM | 535 pM | B6 |

molecular target: T1, Human HER3, endogenous, on human cancer …; test: cell-based or functional assay; remark: another data set of the same source

| MCF7 proliferation % inhibition | MCF7 proliferation IC50 | SK-Br-3 proliferation % inhibition | SK-Br-3 proliferation IC50 | BT-474 proliferation % inhibition | BT-474 proliferation IC50 | Binder |
| --- | --- | --- | --- | --- | --- | --- |
| 24% | 1.47 nM | 45% | 0.572 nM | – | – | B7 |
| 25% | 0.483 nM | 44% | 0.355 nM | – | – | B8 |
| 58% | – | 29% | 0.251 nM | 39% | 1.72 nM | B1 |
| – | – | 48% | 0.285 nM | 48% | 0.924 nM | B2 |
| 52% | – | 24% | 5.41 nM | 28% | 10.6 nM | B3 |
| 58% | – | 32% | 1.29 nM | 43% | 1 nM | B4 |
| 69% | 0.056 nM | 41% | 0.31 nM | 42% | 0.376 nM | B5 |
| 48% | 0.061 nM | 39% | 1.14 nM | 43% | 0.539 nM | B6 |
